± gives the uncertainty stated by the source.

The series in a line: amyloid nucleation score (Sup35N fusion, yeast selection) (log enrichment); library NNK3; higher = more nucleation; inactive = no reads after selection. In short, it runs like this:
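Peptides of 20 random codons fused to Sup35N were expressed in psi-negative yeast, induced 24 hours with 100 μM copper sulfate, then grown 7 days at 30°C on medium lacking adenine and uracil. Input and output plasmid inserts were Illumina-sequenced. Nucleation score is the DiMSum log enrichment of output over input reads, centred on the mode score of non-aggregating sequences, excluding sequences with under 100 input reads. Random libraries had three technical output replicates.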
With STSVSYEWPDLGACIGGDFG, the amyloid nucleation score entry was “inactive”.

Turning to STTDRTWNGYDDILYTYLYF, the amyloid nucleation score result is “inactive”.

In turn, STWYSRCVLALNLLLSCNRG gave an amyloid nucleation score of 1.38 ± 0.13.

As to STYGRMAR, the amyloid nucleation score entry was “inactive”.

Regarding SVGVGNIHTR, the amyloid nucleation score result was “inactive”.

SVMLDNTVVFTIRSGHCSES gave an amyloid nucleation score of 1.13 ± 0.1.

On to SVNNVAWWHYGKMRVNFTFS, for which the amyloid nucleation score was -0.552 ± 0.71.

On to SVNWMVSKLRSPNSQGLAIE, for which the amyloid nucleation score entry is “inactive”.

As to SVRFDDAMIDGITSAYMIKY, the amyloid nucleation score entry is “inactive”.

As for SVRLSIVAGWFCKIWYSFLL, the amyloid nucleation score result was “inactive”.

In the case of SVRRHSSGCMNNAL, the amyloid nucleation score entry was “inactive”.

Substance SVRVYGDCLCECWSCYTPRT gave an amyloid nucleation score of 0.502 ± 0.32.

As to SVSGKRFDVMVLFLHSSKRL, the amyloid nucleation score entry is “inactive”.

Take SVSPEWYSSLLGSLCGAGFL: the amyloid nucleation score result was “inactive”.

As for SVSRRGKDR, the amyloid nucleation score is -0.237 ± 1.5.

SVSVLHSYYLIYVCRDFFMK showed an amyloid nucleation score of 0.865 ± 0.12.

Regarding SVSVRRNYKLIFAASM, the amyloid nucleation score entry was “inactive”.

Take SVTFDAWYCWMN: the amyloid nucleation score entry is “inactive”.

Take SVTLRATGSGNRRYDAIRNY: the amyloid nucleation score result is “inactive”.

Regarding SVTPFPIIFN, the amyloid nucleation score entry was “inactive”.

For SVVVVSWTTMLNDKLDPLDG, the amyloid nucleation score entry is “inactive”.

As to SVVYRKDSIKQRKEFSSHAF, the amyloid nucleation score entry was “inactive”.

As for SVWLASCYHLIWVELGRWDI, the amyloid nucleation score entry is “inactive”.

Take SVWRECNGKFVSFASHFADY: the amyloid nucleation score entry is “inactive”.

In the case of SVYCCIDKLLHSAKSRLFMM, the amyloid nucleation score result is “inactive”.

Take SVYGKFILAAVAGLRFGGLK: the amyloid nucleation score entry was “inactive”.

As to SWCSPNGPQGLEVCSMRPFR, the amyloid nucleation score entry is “inactive”.

As for SWIKEFIQFIFIEGFRC, the amyloid nucleation score entry was “inactive”.

On to SWLANRYMGDYIRQWVWDKL, for which the amyloid nucleation score was -0.932 ± 1.8.

Consider SWMTTRKGGDVALHASLFRM, for which the amyloid nucleation score entry is “inactive”.

As for SWSFMFSFSNSATNAACLPQ, the amyloid nucleation score is 0.327 ± 0.27.

Regarding SWTGCKYIQKYRCRRWCNNF, the amyloid nucleation score entry was “inactive”.

With SWVTDWIL, the amyloid nucleation score result is “inactive”.

In the case of SWVTVYTVMRVWVTFGNRRR, the amyloid nucleation score result is “inactive”.

Take SWVVDITDRRSLFIDTPRFT: the amyloid nucleation score result is “inactive”.

Take SYAGKGLTLQTHHDWRSGNG: the amyloid nucleation score entry was “inactive”.

For SYCHRRLLSRVSLLVASSVK, the amyloid nucleation score entry was “inactive”.

SYCLTGTDSVINVIGAGPSQ: the amyloid nucleation score entry was “inactive”.

For SYFSYPCCCCVVARFLNYVC, the amyloid nucleation score entry was “inactive”.

Consider SYKGLCS, for which the amyloid nucleation score entry was “inactive”.

With SYKMNVMT, the amyloid nucleation score entry was “inactive”.

Turning to SYMYLRGVLRYLVDMFALWI, the amyloid nucleation score entry was “inactive”.

As to SYNTYSVYGWGKGPRNYDWQ, the amyloid nucleation score entry is “inactive”.

In the case of SYRFYDDQSLCG, the amyloid nucleation score entry is “inactive”.

Turning to SYRPDSCRLNTMNDFSSCCS, the amyloid nucleation score entry is “inactive”.

Take SYRYFGGSDYRLCGGIWMLA: the amyloid nucleation score result was “inactive”.

For SYSLNNYMTKLVWIYVSWLL, the amyloid nucleation score result was “inactive”.

Take SYVCIIYGNDGSLSRCKDDL: the amyloid nucleation score result is “inactive”.

As for SYWRLHVIIFLWFFYLRYFN, the amyloid nucleation score entry is “inactive”.

As for TADLRRQTLGWGKFYYVSWF, the amyloid nucleation score result was “inactive”.

Regarding TANLGRCYCKLSNFTSGWFL, the amyloid nucleation score entry was “inactive”.

Turning to TATHKLTNIPW, the amyloid nucleation score result is “inactive”.

On to TAWLSSNFVSDRHCGYGSDC, for which the amyloid nucleation score result is “inactive”.

On to TAYMNQIVNRELYP, for which the amyloid nucleation score result was “inactive”.

Take TCACIWGVSVWCYRSQVFAQ: the amyloid nucleation score was -0.455 ± 0.52.

As to TCCCVYGTMIISEYFHGSNM, the amyloid nucleation score came out at 2.73 ± 0.056.

TCFFISSIFSFDKHVIVCCA returned an amyloid nucleation score of 0.536 ± 0.32.

In turn, TCFVLQNKYVSRCGCWMCYS returned an amyloid nucleation score of 2.12 ± 0.051.

On to TCIQYSKFLRA, for which the amyloid nucleation score result is “inactive”.

Turning to TCKVMSSGYYVLYLDVRV, the amyloid nucleation score entry was “inactive”.

Regarding TCNIFLGAPHGAVGRCCRAR, the amyloid nucleation score worked out at 1.82 ± 0.11.

TCRICTFGVWDFCRTDERRH gave an amyloid nucleation score of 2.24 ± 0.069.

Consider TCSMSTARSCSHKSNRVMHW, for which the amyloid nucleation score entry is “inactive”.

As to TCWRGELMELTDMLSVALLR, the amyloid nucleation score entry is “inactive”.

With TDAIVFMEHSDVGRSSLDWN, the amyloid nucleation score entry is “inactive”.

Consider TDAYKLITFIFPCKYLVTVC, for which the amyloid nucleation score entry is “inactive”.

As for TDDAGMYDNRFQSMSDENTF, the amyloid nucleation score result was “inactive”.

On to TDFDNFSDTF, for which the amyloid nucleation score entry is “inactive”.

For TDFIIRKSYQLLEFYFY, the amyloid nucleation score result was “inactive”.

TDGRITS came in with an amyloid nucleation score of 0.492 ± 0.35.

With TDLGSVGGW, the amyloid nucleation score was -0.206 ± 1.5.

For TDRVNFSRLFSLIHDWLTPG, the amyloid nucleation score result is “inactive”.

Take TDSLFGVIDHFYENRFW: the amyloid nucleation score was -0.845 ± 1.4.

On to TDVMVYHPFL, for which the amyloid nucleation score entry is “inactive”.

In the case of TEGLKIFDDET, the amyloid nucleation score entry is “inactive”.

In the case of TEHKVSFPHFVKYKPSLSSY, the amyloid nucleation score result was “inactive”.

The substance TFAMGLSARSISYCTNTRCP registered an amyloid nucleation score of 0.464 ± 0.4.

On to TFCFLQVN, for which the amyloid nucleation score result is “inactive”.

Consider TFIHRHINNTSQLPGSFMKL, for which the amyloid nucleation score entry is “inactive”.

As to TFKARSLILSLKLYANMDH, the amyloid nucleation score result is “inactive”.

Substance TFLLLYGIMDSNVPTVRHAL yielded an amyloid nucleation score of 0.846 ± 0.15.

TFLVTRVPYSFF: the amyloid nucleation score entry was “inactive”.

Turning to TFQRSGT, the amyloid nucleation score result is “inactive”.

For TFSDRSFRQWVWQELSFCGS, the amyloid nucleation score result was “inactive”.

In turn, TFSFHLCIQEPTSFDNSLHT had an amyloid nucleation score of 0.164 ± 0.36.

With TFSQGSWRTESSLRDGGCLD, the amyloid nucleation score result is “inactive”.

For TFVDPGRV, the amyloid nucleation score is -0.565 ± 1.1.

As to TFWMPD, the amyloid nucleation score is -0.55 ± 1.3.

TGCGQFH: the amyloid nucleation score entry was “inactive”.

TGFILLTTTVSAINVYQVYR registered an amyloid nucleation score of 2.58 ± 0.056.

For the substance TGIWSGYYKLFLSVLRGRRV, the amyloid nucleation score entry was “inactive”.

Consider TGLLLIRIKGH, for which the amyloid nucleation score entry is “inactive”.

As to TGRLVIFTEWRLSAESSRSH, the amyloid nucleation score result is “inactive”.

The substance TGRVCFLCYTMSLIWSSPVT returned an amyloid nucleation score of 0.07 ± 0.7.

In the case of TGVMRYRCLNLFVASICSVP, the amyloid nucleation score entry is “inactive”.

Regarding TGVSVECLLLWSWSVVWRCM, the amyloid nucleation score entry was “inactive”.

As for THKVWFKCVDAYNLAYVNSI, the amyloid nucleation score result is “inactive”.

On to THLFRYKTASTDGCNESKAV, for which the amyloid nucleation score result was “inactive”.

In the case of THSDYSEPRI, the amyloid nucleation score entry was “inactive”.

Turning to THVPYIT, the amyloid nucleation score entry is “inactive”.

Regarding TIGEKHCCWSLCIEETLVCD, the amyloid nucleation score entry is “inactive”.

TIGGNWGHWVVVIFV displayed an amyloid nucleation score of 0.064 ± 0.96.

On to TIHHRCCSKWKSAWRAYWSI, for which the amyloid nucleation score result is “inactive”.

In the case of TIPLSFFDHI, the amyloid nucleation score result was “inactive”.

Consider TISATLVYQ, for which the amyloid nucleation score result is “inactive”.

Consider TISDFISEEIRDLQGPVVCI, for which the amyloid nucleation score result was “inactive”.

As for TISISR, the amyloid nucleation score result is “inactive”.

TITCCVYDN yielded an amyloid nucleation score of 2.13 ± 0.053.

In the case of TITKVNFWEQVRRLLQSGTQ, the amyloid nucleation score result is “inactive”.

For TIVNL, the amyloid nucleation score result is “inactive”.

Turning to TIVTIVAFFNMERYGHFRGD, the amyloid nucleation score was found to be 0.903 ± 0.11.

Turning to TIWAGMLASR, the amyloid nucleation score entry is “inactive”.

Take TIYSLFSLYLGIWQAPASVY: the amyloid nucleation score was -0.455 ± 0.53.

In the case of TKGFDVPT, the amyloid nucleation score result was “inactive”.

TKKASSYQVDWFSCCWEYGA yielded an amyloid nucleation score of 0.708 ± 0.26.

For the substance TKKLKIPYFANFYTRFRHFK, the amyloid nucleation score result is “inactive”.

As for TKMDETDLLMFAVLTGGLNG, the amyloid nucleation score entry was “inactive”.

For the substance TKRKCYPRLVRPGRLKGPSG, the amyloid nucleation score entry was “inactive”.

For TKSPSGTHFLLVRFWSRCGR, the amyloid nucleation score result is “inactive”.

For the substance TKYAHPPTQDDPLCGIRRSV, the amyloid nucleation score result was “inactive”.

Consider TLANQSHLISYYDSDHCRLL, for which the amyloid nucleation score was -0.38 ± 0.78.

As for TLASQFSFLVS, the amyloid nucleation score result is “inactive”.

Substance TLCNFKCVYTGSLKIFHRYM registered an amyloid nucleation score of 1.91 ± 0.094.

As for TLDILLE, the amyloid nucleation score entry was “inactive”.

TLEFHPRAINYDHRMNMFSR: the amyloid nucleation score result was “inactive”.

Take TLGLRADRYKLLYFFEGFLI: the amyloid nucleation score result was “inactive”.

TLGPKEGWLVSNWMWSRVII: the amyloid nucleation score result is “inactive”.

For the substance TLLHLLKLSGLVSKCSTMVL, the amyloid nucleation score result is “inactive”.

As to TLLMMYKVGYLAMAIRMGGL, the amyloid nucleation score result was “inactive”.

TLNIDGFIVFRTEVKGKLSY: the amyloid nucleation score entry is “inactive”.

For the substance TLNRLDSHGSFFRMNVREGV, the amyloid nucleation score result is “inactive”.

The values above are taken from the supplement of paper PMC12042874.
